Experiments:
Assay in all cases: ITC; vinculin D1 injected into αT-catenin or αE-catenin fragment (or αT-catenin head–β-catenin complex) in the cell; 25 °C; 20 mM Hepes pH 8.0, 150 mM NaCl, 1 mM TCEP
Settings in all cases: both partners purified
[1] = target: T1, αT-catenin head (1–659)–β-catenin complex (Mus musculus, UniProt Q65CL1 1-659; Q02248 1-781)
T1 construct: αT-catenin, Mus musculus, head region, aa 1-659; β-catenin, Mus musculus, full length; also called αT-catenin head–β-catenin complex; source: E. coli BL21-Gold, purified; purified complex
T1 sequence (looked up) 1: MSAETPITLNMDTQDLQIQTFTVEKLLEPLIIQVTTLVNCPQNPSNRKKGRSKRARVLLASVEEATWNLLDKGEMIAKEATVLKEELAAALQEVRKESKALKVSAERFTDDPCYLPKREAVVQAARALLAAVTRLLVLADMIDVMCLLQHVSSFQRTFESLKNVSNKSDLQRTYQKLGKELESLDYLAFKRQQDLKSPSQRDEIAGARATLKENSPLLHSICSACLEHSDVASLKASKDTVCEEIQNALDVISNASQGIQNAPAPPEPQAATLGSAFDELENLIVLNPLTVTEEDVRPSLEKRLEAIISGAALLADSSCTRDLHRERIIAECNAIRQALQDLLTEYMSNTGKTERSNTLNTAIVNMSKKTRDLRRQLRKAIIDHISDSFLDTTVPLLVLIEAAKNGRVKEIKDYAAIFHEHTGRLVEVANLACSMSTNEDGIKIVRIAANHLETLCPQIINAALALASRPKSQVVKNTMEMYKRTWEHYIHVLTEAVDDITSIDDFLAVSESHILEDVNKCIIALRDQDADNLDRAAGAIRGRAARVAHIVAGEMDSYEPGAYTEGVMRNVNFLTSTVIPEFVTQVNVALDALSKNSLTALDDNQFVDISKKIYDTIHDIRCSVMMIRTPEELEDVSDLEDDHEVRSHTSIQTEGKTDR
T1 sequence (looked up) 2: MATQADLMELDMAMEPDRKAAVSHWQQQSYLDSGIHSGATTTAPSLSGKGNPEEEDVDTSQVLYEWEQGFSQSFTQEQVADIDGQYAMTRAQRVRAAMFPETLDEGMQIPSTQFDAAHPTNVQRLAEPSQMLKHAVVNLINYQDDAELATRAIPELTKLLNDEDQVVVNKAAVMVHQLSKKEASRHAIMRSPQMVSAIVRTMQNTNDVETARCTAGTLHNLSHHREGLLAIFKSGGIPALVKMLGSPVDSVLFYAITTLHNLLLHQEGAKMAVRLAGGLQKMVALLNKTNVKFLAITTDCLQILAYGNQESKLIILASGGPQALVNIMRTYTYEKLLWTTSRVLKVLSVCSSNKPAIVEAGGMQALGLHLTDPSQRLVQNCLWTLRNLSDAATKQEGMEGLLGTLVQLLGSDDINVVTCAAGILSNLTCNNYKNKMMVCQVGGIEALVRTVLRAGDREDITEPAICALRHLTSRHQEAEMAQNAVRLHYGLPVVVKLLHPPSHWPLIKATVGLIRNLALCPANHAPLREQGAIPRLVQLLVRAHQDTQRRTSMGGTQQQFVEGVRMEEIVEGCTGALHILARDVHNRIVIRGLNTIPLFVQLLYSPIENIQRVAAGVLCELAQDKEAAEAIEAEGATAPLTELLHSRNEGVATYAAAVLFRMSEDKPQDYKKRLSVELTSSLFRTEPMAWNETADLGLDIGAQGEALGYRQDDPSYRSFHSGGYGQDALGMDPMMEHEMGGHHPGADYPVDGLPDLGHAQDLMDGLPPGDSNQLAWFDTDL

[2] = target: T2, αE-catenin M1-M3 (aa 273–651) (Mus musculus, UniProt P26231 273-651)
T2 construct: αE-catenin, Mus musculus, M1-M3, aa 273-651; in pGEX-TEV; also called αE-catenin M1-M3 (273–651); source: E. coli BL21-Gold, purified (glutathione-agarose, TEV cleavage, Mono Q or Mono S, S200)
T2 sequence (looked up): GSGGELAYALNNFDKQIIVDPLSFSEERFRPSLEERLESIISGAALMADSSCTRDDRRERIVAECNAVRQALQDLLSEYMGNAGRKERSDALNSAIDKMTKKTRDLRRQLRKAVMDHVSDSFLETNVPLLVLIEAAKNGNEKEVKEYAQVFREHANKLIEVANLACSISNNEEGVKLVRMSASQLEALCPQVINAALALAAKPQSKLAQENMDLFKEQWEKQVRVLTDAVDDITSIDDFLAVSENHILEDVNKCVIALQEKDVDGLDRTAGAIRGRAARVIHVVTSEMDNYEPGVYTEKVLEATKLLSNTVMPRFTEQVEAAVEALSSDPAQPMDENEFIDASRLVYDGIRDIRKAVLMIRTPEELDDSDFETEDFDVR

[3] = target: T3, αT-catenin head region (aa 1–659) (Mus musculus, UniProt Q65CL1 1-659)
T3 construct: αT-catenin, Mus musculus, head region (N- and M-domains), aa 1-659; in pGEX-TEV; also called αT-catenin head (1–659); αT-catenin N1-M3 (aa 1–659); source: E. coli BL21-Gold, purified (glutathione-agarose, TEV cleavage, Mono Q or Mono S, S200)
T3 sequence (looked up): T1 sequence (looked up) 1

[4] = target: T4, αE-catenin M1-M2 (aa 273–510) (Mus musculus, UniProt P26231 273-510)
T4 construct: αE-catenin, Mus musculus, M1-M2, aa 273-510; in pGEX-TEV; also called αE-catenin M1-M2 (273–510); source: E. coli BL21-Gold, purified (glutathione-agarose, TEV cleavage, Mono Q or Mono S, S200)
T4 sequence (looked up): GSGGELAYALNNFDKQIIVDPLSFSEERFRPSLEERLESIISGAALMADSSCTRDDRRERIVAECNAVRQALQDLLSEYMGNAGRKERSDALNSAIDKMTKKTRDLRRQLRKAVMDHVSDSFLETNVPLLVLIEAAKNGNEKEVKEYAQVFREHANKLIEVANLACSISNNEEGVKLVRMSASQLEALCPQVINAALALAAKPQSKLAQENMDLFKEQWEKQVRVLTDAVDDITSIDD

Kd [1]: 2.77 ± 0.875 µM
dH [1]: 4.4 ± 0.6 kcal/mol
Kd [2]: 10.4 ± 4.59 µM
dH [2]: 12.8 ± 5.2 kcal/mol
Kd [3]: 4.69 ± 2.74 µM
dH [3]: 2.3 ± 1.3 kcal/mol
dH [4]: 8.7 ± 0.2 kcal/mol
B1: vinculin D1 (aa 1–259) (domain or fragment, UniProt P12003 1-259, looked up)
chain: MPVFHTRTIESILEPVAQQISHLVIMHEEGEVDGKAIPDLTAPVSAVQAAVSNLVRVGKETVQTTEDQILKRDMPPAFIKVENACTKLVRAAQMLQADPYSVPARDYLIDGSRGILSGTSDLLLTFDEAEVRKIIRVCKGILEYLTVAEVVETMEDLVTYTKNLGPGMTKMAKMIDERQQELTHQEHRVMLVNSMNTVKELLPVLISAMKIFVTTKNTKSQGIEEALKNRNFTVEKMSAEINEIIRVLQLTSWDEDAWA
notes: vinculin D1 fragment, aa 1-259, the first 2 four-helix bundles; in pGEX-TEV; also called vinculin aa 1 to 259 (D1); vinculin N-terminus; source: E. coli BL21-Gold, purified (glutathione-agarose, TEV cleavage, Mono Q or Mono S, S200)

Source: PMC8091058, “Distinct intramolecular interactions regulate autoinhibition of vinculin binding in αT-catenin and αE-catenin” (The Journal of Biological Chemistry, 2021)
